The values that follow come from US20200283491A1.

What all share (test): cell-based or functional assay
The target of test [1] is rat Y2 receptor (rat) (UniProt Q9ERC0).
Test [2] concerns the target rhesus monkey Y2 receptor (rhesus monkey) (UniProt Q9GK74).
Test [3] addresses mouse Y2 receptor (mouse) (UniProt P97295).
Test [4] deals with human Y1 receptor (human) (UniProt P25929).
Sequence of human Y1 receptor (human) (P25929 whole entry): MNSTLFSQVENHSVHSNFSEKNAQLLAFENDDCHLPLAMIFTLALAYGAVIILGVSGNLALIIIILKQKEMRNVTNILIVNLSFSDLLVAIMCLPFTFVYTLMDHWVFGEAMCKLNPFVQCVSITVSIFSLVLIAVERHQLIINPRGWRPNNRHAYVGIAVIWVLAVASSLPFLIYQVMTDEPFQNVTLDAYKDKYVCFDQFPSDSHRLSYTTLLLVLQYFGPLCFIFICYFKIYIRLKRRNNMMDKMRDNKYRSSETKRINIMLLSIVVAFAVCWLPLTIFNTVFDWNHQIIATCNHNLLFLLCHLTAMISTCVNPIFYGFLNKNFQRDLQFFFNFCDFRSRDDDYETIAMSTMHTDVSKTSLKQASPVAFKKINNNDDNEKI

Sequence of rhesus monkey Y2 receptor (rhesus monkey) (Q9GK74 whole entry): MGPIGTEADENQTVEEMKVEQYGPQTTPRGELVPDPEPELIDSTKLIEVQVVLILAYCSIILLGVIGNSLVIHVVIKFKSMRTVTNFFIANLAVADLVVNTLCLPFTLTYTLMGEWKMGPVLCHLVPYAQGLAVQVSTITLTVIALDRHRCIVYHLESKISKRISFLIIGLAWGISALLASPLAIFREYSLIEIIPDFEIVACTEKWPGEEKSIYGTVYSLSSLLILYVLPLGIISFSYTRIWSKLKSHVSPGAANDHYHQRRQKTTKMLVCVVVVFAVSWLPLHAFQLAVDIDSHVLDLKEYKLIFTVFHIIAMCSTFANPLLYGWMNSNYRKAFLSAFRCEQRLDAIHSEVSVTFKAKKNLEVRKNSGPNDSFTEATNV
Sequence of mouse Y2 receptor (mouse) (P97295 whole entry): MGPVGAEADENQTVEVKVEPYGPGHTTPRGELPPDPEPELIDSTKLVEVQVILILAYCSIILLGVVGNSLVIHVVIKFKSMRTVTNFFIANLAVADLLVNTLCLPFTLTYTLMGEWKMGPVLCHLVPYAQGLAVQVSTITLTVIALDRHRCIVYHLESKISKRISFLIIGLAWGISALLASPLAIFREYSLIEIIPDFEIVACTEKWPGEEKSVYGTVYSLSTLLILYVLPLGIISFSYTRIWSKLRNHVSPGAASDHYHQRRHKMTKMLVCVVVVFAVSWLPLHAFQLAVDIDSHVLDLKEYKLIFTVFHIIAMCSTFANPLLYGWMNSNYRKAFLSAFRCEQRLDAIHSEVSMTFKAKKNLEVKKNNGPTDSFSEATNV
Sequence of rat Y2 receptor (rat) (Q9ERC0 entry or part of it): as the sequence (P97295 whole entry) above, with V4L, P20L, P23S, H25P, I52V, R163Q, I175V, R247K, M266T, P371L counted along it

In the case of “PYY3-36 (from UniProt P10082 31-64) (peptide)”, the Cross-species potency (EC50 nM), cAMP assay in test [1] is 0.5 nM; in test [2], 0.06 nM; in test [3] it was 0.03 nM. This substance came in with a Human isoform potency (EC50 nM), cAMP assay in test [4] of 66.4 nM.
